{"source": "patent US20030118551A1", "key": {"[1]": {"target": "collagen (collagen-coated microtiter wells and culture plates; collagen matrices)", "experiment": "cell-based or functional assay"}, "[2]": {"target": "collagen (collagen-coated microtiter wells and culture plates; collagen matrices)", "experiment": "about 1 µg protein on collagen-coated microtiter plates, washes of rising stringency, immunodetection with DAB"}}, "data": [{"substance": "chimeric ECB-CEE+ Moloney Murine Leukemia Virus gp70 envelope protein with collagen binding domain, on retroviral vector particles (from UniProt P03385 52-469)", "values": [{"measurement": "transduction efficiency of NIH 3T3 cells overlaid upon the virus-bound collagen", "setting": "[1]", "value": "20 to 40", "unit": "%"}]}, {"substance": "purified, renatured SU-ECB-CEE+ chimeric envelope protein (His×6 tag, von Willebrand Factor derived collagen binding domain, mature SU region of MoMuLV env gp70, residues 34 to 474) (from UniProt P03385 52-474)", "values": [{"measurement": "urea needed to release the collagen-bound protein", "setting": "[2]", "value": 3, "unit": "M"}]}]}
